Series [1] deals with T1, RecA (Escherichia coli, UniProt P0A7G6 1-353). Kind of series: double filter binding.
Series [2] addresses T1, RecA. Kind of series: double filter binding. This is another data set of the same source.

Read-outs that look alike come from different tables or passages of the source.

T1 sequence (P0A7G6 whole entry): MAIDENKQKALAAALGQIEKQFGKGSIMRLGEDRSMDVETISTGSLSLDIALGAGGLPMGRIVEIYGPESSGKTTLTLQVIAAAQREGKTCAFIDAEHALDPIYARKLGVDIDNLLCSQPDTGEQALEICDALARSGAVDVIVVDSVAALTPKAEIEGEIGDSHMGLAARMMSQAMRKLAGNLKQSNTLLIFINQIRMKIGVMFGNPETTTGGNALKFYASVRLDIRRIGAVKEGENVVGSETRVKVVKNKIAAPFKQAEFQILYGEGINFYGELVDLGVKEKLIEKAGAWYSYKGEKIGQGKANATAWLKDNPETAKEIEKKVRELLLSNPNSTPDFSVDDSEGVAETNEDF

As a reminder, the Kd is the equilibrium constant for the complex coming apart. High values mean weaker binding, low ones tighter binding. TGGTGGTGGTGGTGGTGGTGGTGGTGGTGGTGGTGGTGGTGGTGGTGG (ssDNA) [TGG-repeating 48mer] had a Kd in the series with RecA [1] of 91 nM.

In the case of CCACCACCACCACCACCACCACCACCACCACCACCACCACCACCACCA (ssDNA) [CCA-repeating 48mer], the Kd with RecA [2] was 246 nM.

(Values after article PMC1459065.)
